Results on six molecules are retold here after patent US20200317817A1 (XOMA US, published 2020).

A word on the Kd: it is the constant that tells how readily two partners part at equilibrium. As usually defined, the koff is a measure of how fast the partners let go of each other. For orientation: kon means the rate constant with which the complex forms.

Assay [1] has as its target T1, mouse PTH1R overexpressed on CHO cells (mouse, UniProt P41593 27-591).
T1 sequence (looked up): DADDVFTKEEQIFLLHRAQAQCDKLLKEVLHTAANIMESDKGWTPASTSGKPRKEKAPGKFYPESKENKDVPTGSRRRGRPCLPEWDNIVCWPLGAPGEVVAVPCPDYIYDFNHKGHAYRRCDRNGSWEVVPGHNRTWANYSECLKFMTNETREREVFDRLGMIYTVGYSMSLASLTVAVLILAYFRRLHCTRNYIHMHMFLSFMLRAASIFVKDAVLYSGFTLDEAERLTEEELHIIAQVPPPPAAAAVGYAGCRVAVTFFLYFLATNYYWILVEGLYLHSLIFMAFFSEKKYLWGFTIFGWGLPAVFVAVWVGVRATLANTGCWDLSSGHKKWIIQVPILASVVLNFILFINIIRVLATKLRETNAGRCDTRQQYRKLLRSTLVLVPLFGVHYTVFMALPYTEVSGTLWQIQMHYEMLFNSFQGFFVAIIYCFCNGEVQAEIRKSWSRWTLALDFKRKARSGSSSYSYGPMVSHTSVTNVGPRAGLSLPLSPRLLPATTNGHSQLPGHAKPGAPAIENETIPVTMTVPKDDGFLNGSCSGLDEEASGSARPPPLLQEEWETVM
The assay can be described thus: cell-based or functional assay.

The target in assay [2] is T2, rat PTH1R on UMR106 cells (rat, UniProt P25961 27-591).
T2 sequence (looked up): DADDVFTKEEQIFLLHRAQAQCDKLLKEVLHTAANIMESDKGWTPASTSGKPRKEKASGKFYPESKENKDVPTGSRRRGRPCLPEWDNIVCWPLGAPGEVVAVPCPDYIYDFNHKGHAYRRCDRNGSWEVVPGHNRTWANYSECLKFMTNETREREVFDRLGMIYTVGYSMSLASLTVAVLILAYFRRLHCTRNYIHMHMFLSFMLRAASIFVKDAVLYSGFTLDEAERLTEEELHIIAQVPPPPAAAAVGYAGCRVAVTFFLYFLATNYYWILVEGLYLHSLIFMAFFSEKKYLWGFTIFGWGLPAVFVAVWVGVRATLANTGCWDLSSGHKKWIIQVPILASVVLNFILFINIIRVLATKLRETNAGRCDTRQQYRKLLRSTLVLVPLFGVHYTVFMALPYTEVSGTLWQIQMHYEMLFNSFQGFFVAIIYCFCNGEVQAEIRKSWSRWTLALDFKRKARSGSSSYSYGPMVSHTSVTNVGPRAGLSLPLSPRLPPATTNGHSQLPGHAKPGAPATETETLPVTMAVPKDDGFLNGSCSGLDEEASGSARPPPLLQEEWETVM
Description: cell-based or functional assay.

Assay [3] has as its target T3, human PTH1R overexpressed on CHO cells (human, UniProt Q03431 27-593).
T3 sequence (looked up): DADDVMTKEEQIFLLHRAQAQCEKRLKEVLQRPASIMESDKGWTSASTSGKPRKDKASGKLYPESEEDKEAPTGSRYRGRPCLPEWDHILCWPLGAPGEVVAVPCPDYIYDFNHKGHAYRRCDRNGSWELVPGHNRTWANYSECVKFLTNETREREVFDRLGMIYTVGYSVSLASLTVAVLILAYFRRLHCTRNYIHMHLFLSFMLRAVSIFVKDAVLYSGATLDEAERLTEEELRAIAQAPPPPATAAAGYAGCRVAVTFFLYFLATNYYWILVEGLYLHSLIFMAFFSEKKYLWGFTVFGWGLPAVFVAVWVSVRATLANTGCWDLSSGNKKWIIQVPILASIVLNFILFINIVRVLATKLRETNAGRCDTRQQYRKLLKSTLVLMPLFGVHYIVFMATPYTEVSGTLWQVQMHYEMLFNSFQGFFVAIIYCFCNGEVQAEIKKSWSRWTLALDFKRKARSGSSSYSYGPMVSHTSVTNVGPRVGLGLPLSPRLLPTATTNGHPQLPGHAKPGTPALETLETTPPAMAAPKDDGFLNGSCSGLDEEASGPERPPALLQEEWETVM
Description: cell-based or functional assay.

Assay [4] has as its target T4, human PTH1R on Saos-2 cells (endogenous) (human, UniProt Q03431 27-593).
T4 sequence (looked up): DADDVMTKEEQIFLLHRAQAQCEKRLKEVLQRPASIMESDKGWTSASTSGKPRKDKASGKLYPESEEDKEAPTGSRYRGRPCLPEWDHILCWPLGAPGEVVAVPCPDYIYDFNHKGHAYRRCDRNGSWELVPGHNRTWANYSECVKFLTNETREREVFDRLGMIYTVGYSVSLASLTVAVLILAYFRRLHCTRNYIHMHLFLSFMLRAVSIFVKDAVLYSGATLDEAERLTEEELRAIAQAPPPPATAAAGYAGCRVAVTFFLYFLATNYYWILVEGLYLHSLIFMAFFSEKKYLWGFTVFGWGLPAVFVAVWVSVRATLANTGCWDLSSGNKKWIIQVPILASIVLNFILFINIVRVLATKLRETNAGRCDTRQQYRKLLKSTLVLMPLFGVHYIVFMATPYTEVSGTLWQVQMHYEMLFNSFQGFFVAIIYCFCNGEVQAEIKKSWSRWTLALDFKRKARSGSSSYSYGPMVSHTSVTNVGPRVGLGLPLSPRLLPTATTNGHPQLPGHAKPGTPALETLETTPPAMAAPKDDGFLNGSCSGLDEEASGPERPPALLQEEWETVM
The assay can be described thus: cell-based or functional assay.

Assay [5] addresses T2, rat PTH1R on UMR106 cells. The assay can be described thus: flow cytometry, 1 hr at 4 C.
Assay [6] concerns the target T5, recombinant N-terminal extracellular domain of the human PTH1R receptor (human, UniProt Q03431 27-188, limits assumed).
T5 construct: domain: N-terminal extracellular domain; Bought reagent; also called N-ECD PTH1R; PTH1R N-terminal ECD
T5 sequence (looked up): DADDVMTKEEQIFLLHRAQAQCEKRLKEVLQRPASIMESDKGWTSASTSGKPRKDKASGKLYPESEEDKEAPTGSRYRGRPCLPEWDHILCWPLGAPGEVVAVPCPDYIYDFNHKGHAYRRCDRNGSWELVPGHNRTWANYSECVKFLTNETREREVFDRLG
Description: SPR, IgG captured, ECD injected. On the procedure:
An anti-human IgG-Fc CMS sensor chip (GE Healthcare) was prepared using standard amine coupling as described by the manufacturer's protocol for the capture Ab on a BIACORE 4000 system (GE Healthcare). Briefly, the chip surface was activated with a 10 minute injection at 10 μL/minute of a freshly mixed 1:1 solution of 0.1 M N-Hydroxysuccinimide (NHS) and 0.4 M 1-Ethyl-3-(3-dimethylaminopropyl) carbodiimide hydrochloride (EDC). Following the activation injection, 15 ug/mL anti-human IgG-Fc antibody in acetate pH 4.5 was injected at 10 μL/minute for 10 minutes to achieve a high density capture surface. 7 minutes of 1M Ethanolamine hydrochloride-NaOH pH 8.5 was injected to block the surface. The NHS, EDC, and Ethanolamine used were from the BIACORE Amine Coupling Kit.
Kinetic Analysis was performed using HBS-EP+(Teknova) with 2.5 mg/mL BSA (Sigma Aldrich, St. Louis Mo.). Antibodies were diluted to 0.5 μg/mL and captured to achieve a surface density of 100 to 200 RU. […] Injections were performed at 30 μL/minute for 240 seconds with a 360 second dissociation time. Regeneration was then performed with one 60 second injection 3M MgCl.
The data were analyzed using BIACORE 4000 Evaluation Software and was double referenced by subtracting both the blank flow cell data and the averaged bracketing blank injections. The data was fit by simultaneously fitting the an off-rate (kd) and on-rate (kₐ), and calculating the KD as KD=kd/kₐ.

The target of assay [7] is T3, human PTH1R overexpressed on CHO cells. Description: cell-based or functional assay. The source holds these as a separate data set.
Assay [8] has as its target T1, mouse PTH1R overexpressed on CHO cells. The assay can be described thus: cell-based or functional assay. The source holds these as a separate data set.

Turning to “human PTHrP(1-34) (from UniProt P12272 37-70) (peptide)”, the EC50 of PTHrP(1-34), cAMP assay, vehicle only is 0.0431 nM in assay [1] and 0.333 nM in assay [2].

For “Human PTH(1-34) (from UniProt P01270 32-65) (peptide)”, in assay [3], the EC50 of PTH (1-34) induced ERK1/2 phosphorylation without anti-PTH1R antibody turned out to be 3.8 nM. Besides, the EC50 of PTH(1-34), cAMP assay, vehicle only was found to be 0.0307 nM in assay [3], 0.0306 nM in assay [1], 0.647 nM in assay [2] and 0.524 nM in assay [4]. In assay [4], this molecule yielded a PTH (1-34) dose response without anti-PTH1R antibody, M-CSF secretion by Saos-2 cells of 1.2 nM.

B1: XPA.85.333 (antibody, V domains shown)
VH: QMQLVQSGAEVKKPGSSVKVSCKASGGTFSSYAISWVRQAPGQGLEWMGGIIPIFGTANYAQKFQGRVTITADESTSTAYMELSSLRSEDTAVYYCARGYVVARLWGQGTLVTVSS
VL: DVVMTQTPLSLSVTPGQPASISCKSSQSLLHIDGKAYLYWYLQKPGQSPHLLIREVSTRFSGVSDRFTGSGSGTDFTLEISRVEAEDVGVYYCMQGLHLPPTFGQGTKVEIK
notes: Light-chain-shuffled variant of XPA.85.012
Turning to B1, the binding result in assay [5] was “binds”. Moreover, in assay [6], the Kd amounted to 0.3 nM, the off-rate constant (koff) stood at 0.00054 s⁻¹ and the kon is 1.8e+06 M⁻¹ s⁻¹. In addition, in assay [7], the “IC50, inhibition of PTH(1-34)-induced cAMP accumulation” value amounted to 11.4 nM and the “IC50, inhibition of PTHrP(1-34)-induced cAMP accumulation” value came out at 5.61 nM. Besides, the “IC50, inhibition of PTHrP(1-34)-induced cAMP accumulation” value in assay [8] amounted to 2.04 nM.

B2: XPA.85.344 (antibody, V domains shown)
VH: QMQLVQSGAEVKKPGSSVKVSCKASGGTFSSYAISWVRQAPGQGLEWMGGIIPIFGTANYAQKFQGRVTITADESTSTAYMELSSLRSEDTAVYYCARGYVVARLWGQGTLVTVSS
VL: DVVMTQTPLSLSVTPGQPASFSCKSTQSLLWRDGNTYLYWYLQKPGQSPQLLIYEVSGRFSGVPERFSGSGSGTDFTLEISRVEAEDVGVYYCMQSIHFPLTFGGGTKLEIK
notes: as for B1
B2: the binding result in assay [5] is given as “binds”. In assay [6], the Kd amounted to 0.18 nM, the koff was determined as 0.00023 s⁻¹ and the on-rate (kon) worked out at 1.3e+06 M⁻¹ s⁻¹. In addition, in assay [7], the “IC50, inhibition of PTH(1-34)-induced cAMP accumulation” value worked out at 15.5 nM and the “IC50, inhibition of PTHrP(1-34)-induced cAMP accumulation” value stood at 15.3 nM. Further, in assay [8], the “IC50, inhibition of PTHrP(1-34)-induced cAMP accumulation” value turned out to be 3.89 nM.

B3: XPA.85.334 (antibody, V domains shown)
VH: QMQLVQSGAEVKKPGSSVKVSCKASGGTFSSYAISWVRQAPGQGLEWMGGIIPIFGTANYAQKFQGRVTITADESTSTAYMELSSLRSEDTAVYYCARGYVVARLWGQGTLVTVSS
VL: DIVMTQTPLSLSVTPGQPASITCKSSQSLLHIDGKTYLYWFLQKPGQPPQLLIYEVSNRFSGVPDRFSGTGSGTDFTLKISRVEAEDVGVYYCMQSLHFPITFGPGTRLEIK
notes: as for B1
B3: the binding result in assay [5] is reported as “binds”. Besides, in assay [6], the Kd turned out to be 0.25 nM, the koff was determined as 0.00021 s⁻¹ and the kon was determined as 860000 M⁻¹ s⁻¹. Besides, in assay [7], the “IC50, inhibition of PTH(1-34)-induced cAMP accumulation (curve does not reach a plateau)” value turned out to be 51.2 nM and the “IC50, inhibition of PTHrP(1-34)-induced cAMP accumulation” value stood at 12.4 nM. In addition, the “IC50, inhibition of PTHrP(1-34)-induced cAMP accumulation” value in assay [8] stood at 3.32 nM.

B4: XPA.85.343 (antibody, V domains shown)
VH: QMQLVQSGAEVKKPGSSVKVSCKASGGTFSSYAISWVRQAPGQGLEWMGGIIPIFGTANYAQKFQGRVTITADESTSTAYMELSSLRSEDTAVYYCARGYVVARLWGQGTLVTVSS
VL: DVVMTQTPLSLSVTPGQPASISCKSSQSLLHIDGRTYLYWYLQKAGQPPQLLIYEVSNRFSGVPDRFSGSGSGTDFTLKISRVEAEDVGVYYCMQSIHFPLTFGGGTKLEIK
notes: as for B1
On to B4, for which the binding result in assay [5] is listed as “binds”. In addition, in assay [6], the Kd is 0.42 nM, the koff stood at 0.00045 s⁻¹ and the association rate constant (kon) came to 1.1e+06 M⁻¹ s⁻¹. In assay [7], the “IC50, inhibition of PTH(1-34)-induced cAMP accumulation” value came out at 14.4 nM and the “IC50, inhibition of PTHrP(1-34)-induced cAMP accumulation” value was 17.8 nM. Further, the “IC50, inhibition of PTHrP(1-34)-induced cAMP accumulation” value in assay [8] was found to be 3.87 nM.
